This data set has as its target FMRP RGG box (UniProt Q06787 527-554). The data set can be described thus: EMSA. (In general: Mobility shift assays separate free from complexed probe on a gel.)

Consider one molecule from paper PMC4643373.

B1: NR2B mRNA (32 nt) (structured_RNA)
RNA: GGGUACGGGAGGGUAAGGCUGUGGGUCGCGUG
For B1, the binding result is listed as “binds”.
